# Test results: US10154957B2, “Microneedle device having a peptide therapeutic agent and an amino acid and methods of making and using the same” (3M INNOVATIVE PROPERTIES COMPANY, priority 2011, dated 2018)
# Key:
# [1] = Stability of insulin in coating on flood-coated microneedle arrays stored at 40° C./96% RH (HPLC); type: physicochemical; conditions: insulin 5 mg/mL in 0.1 N acetic acid
# Procedure: The protein or polypeptide content in the formulation coated on the microneedle arrays was determined using an Agilent 1100 HPLC system (Agilent Technologies, Wilmington, Del.) equipped with a binary pump, well-plated thermostated autosampler, thermostated column compartment, and a diode array UV detector. A Zorbax 300SB-C8 column (Agilent Technologies, Wilmington, Del.) having a 5 μm particle size and 2.1×150 mm inner diameter was used for the separations. The column was maintained at 50° C. The mobile phase consisted of two eluents. Eluent A was 0.1% TFA (trifluoroacetic acid) in water and eluent B was 0.1% TFA in acetonitrile (Spectrum Chemical, New Brunswick, N.J.). A linear gradient from 80/20 to 50/50 (A/B) was applied over 30 minutes. The flow rate was 0.4 mL/minute and the UV detection wavelength was set at 214 nm. The total run time was 34 minutes and the sample injection volume was 15 μL.
# The pH of the sample formulation was 3.0-3.5. […] The pH of the control formulation was 3.0-3.5. Microneedle arrays were coated with either the sample or the control formulation. The coating was applied by dropwise addition of 50 μL of the formulation to the portion of the array defined by the octagon shaped pattern of microneedles. The flood coated arrays (both sample and control formulation coated) were dried in an oven at 35° C. for about 15 hours.
# After drying, the coated arrays were placed in a storage chamber that was maintained at 40° C. and 96% relative humidity (RH). […] At the designated time point, an array was taken from the chamber and washed with 0.1 N acetic acid (1 mL) to remove the coating from the array. […] The arrays used as reference standards were stored in a refrigerator at about 4° C. and analyzed within one day of being prepared.
# The same procedure as described in Example 5 was used with the exception that the sample formulation contained 12 mg/mL of L-arginine hydrochloride, instead of L-histidine monohydrochloride. The pH of the sample formulation was 3.0-3.5.
# [2] = as above; type: physicochemical; conditions: Amino Acid L-Histidine (His-HCl 12 mg/mL), insulin 5 mg/mL in 0.1 N acetic acid
substance,measurement,setting,value
Insulin,Percent of Initial Insulin Content in the Coating,"[1]; Amino Acid L-Arginine (Arg-HCl 12 mg/mL), Day 1 at 40° C./96% RH",75.4%
same,Percent of Initial Insulin Content in the Coating,"[1]; Amino Acid L-Arginine (Arg-HCl 12 mg/mL), Day 3 at 40° C./96% RH",45.9%
same,Percent of Initial Insulin Content in the Coating,"[1]; Amino Acid L-Arginine (Arg-HCl 12 mg/mL), Day 7 at 40° C./96% RH",27.1%
same,Percent of Initial Insulin Content in the Coating,"[1]; Amino Acid L-Arginine (Arg-HCl 12 mg/mL), Initial",100%
same,Percent of Initial Insulin Content in the Coating,"[1]; Amino Acid None (control), Day 3 at 40° C./96% RH",0%
same,Percent of Initial Insulin Content in the Coating,"[1]; Amino Acid None (control), Day 7 at 40° C./96% RH",0%
same,Percent of Initial Insulin Content in the Coating,"[1]; Amino Acid None (control), Day 14 at 40° C./96% RH",0%
same,Percent of Initial Insulin Content in the Coating,"[1]; Amino Acid None (control), Initial",100%
same,Percent of Initial Insulin Content in the Coating,[2]; Day 1 at 40° C./96% RH,95.3%
same,Percent of Initial Insulin Content in the Coating,[2]; Day 3 at 40° C./96% RH,93.5%
same,Percent of Initial Insulin Content in the Coating,[2]; Day 7 at 40° C./96% RH,79.2%
same,Percent of Initial Insulin Content in the Coating,[2]; Day 14 at 40° C./96% RH,34.9%
same,Percent of Initial Insulin Content in the Coating,[2]; Initial,100%
